The supplement of paper PMC10567573

B1: CDC14A (parent)
chain: LNLAMVYRYCCKLNKKLKSYSLSR
B2: TRIM63 (parent)
chain: FRCPTCRHEVIMDRHGVYGLQRNL

Variants of: B1
Assay: protein stability index of a GFP-peptide fusion (GPS, HEK-293T) (PSI 1-6); higher = more stable
Settings: c terminus: a fixed tail appended
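Also: lentivirally expressed fusions sorted by FACS into six bins by GFP to DsRed ratio, PSI derived from sequencing read proportions per bin multiplied by bin number.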

Variant | protein stability index
LNEAMVYRYCCKLNKKLKSYSLSR [L3E] | 2.32
LNLAMVYRYCCKLNKKLGSYSLSR [K18G] | 3.2
LNLAMVYRYCLKLNKKLKSYSLSR [C11L] | 2.64
LNLAMVYRYCCDLNKKLKSYSLSR [K12D] | 1.81
LNLAMVYRYCCKLNKKLKSLSLSR [Y20L] | 2.94
LNLAMVIRYCCKLNKKLKSYSLSR [Y7I] | 3.1
LNLAMVYRYCCKLNKKLKSYSLWR [S23W] | 3.77
LNLAMVYRYCCKGNKKLKSYSLSR [L13G] | 2.49
LNLRMVYRYCCKLNKKLKSYSLSR [A4R] | 3.08

Variants of: B2
Assay: as above
Settings: c terminus: a fixed tail appended

Variant | protein stability index
FRCPTCRHEVISDRHGVYGLQRNL [M12S] | 3.59
FRCPTCRHEVIHDRHGVYGLQRNL [M12H] | 2.06
FRCPTCRHEVICDRHGVYGLQRNL [M12C] | 2.02
FRCPTCRHEVIEDRHGVYGLQRNL [M12E] | 2.19
FRCPTCRHEVIMDRHGVYMLQRNL [G19M] | 1.98
FRCPTCRHEVIMDRHGVYDLQRNL [G19D] | 1.67
FRCPTCRHEVIMDRHGVYFLQRNL [G19F] | 2.28
FRCPTCRHEVIMDRHGVYILQRNL [G19I] | 1.92
FRCPTCRHEVIMDRHGVYNLQRNL [G19N] | 2.21
FRCPTCRHEVIMDRHGVYVLQRNL [G19V] | 2.14
FRCPTCRHEVIMDRHGVYPLQRNL [G19P] | 2.25
FRCPTCRHEVIMDRHGVYWLQRNL [G19W] | 3.11
FRCPTCRHEVIMDRHGVYCLQRNL [G19C] | 2.57
FRCPTCRHEVIMDRHGVYALQRNL [G19A] | 2.7
FRCPTCRHEVIMDRHGVYHLQRNL [G19H] | 2.51
FRCPTCRHEVIMDRHGVYLLQRNL [G19L] | 1.47
FRCPTCRTEVIMDRHGVYGLQRNL [H8T] | 2.31
FRCPTCRMEVIMDRHGVYGLQRNL [H8M] | 3.58
FRCPTCRSEVIMDRHGVYGLQRNL [H8S] | 1.96
FRCPTCRIEVIMDRHGVYGLQRNL [H8I] | 2.11
FRCPTCRAEVIMDRHGVYGLQRNL [H8A] | 2.6
FRCPTCRNEVIMDRHGVYGLQRNL [H8N] | 2.24

Variant | protein stability index
FRCPTCRCEVIMDRHGVYGLQRNL [H8C] | 2.52
FRCPTCRFEVIMDRHGVYGLQRNL [H8F] | 2.64
FRCPTCRYEVIMDRHGVYGLQRNL [H8Y] | 2.34
FRCPTCRHEVIMDRHGVYGLQRNP [L24P] | 2.98
FRCPTCRHEVIMDRHGVYGLQRNC [L24C] | 2.75
FRCPTCRHEVIMDRHGVYGLQRNH [L24H] | 2.88
FRCPTCRHEVIMDRHGVYGLQRNK [L24K] | 1.89
FRCPTCRHEVIMDRHGVYGLQRNY [L24Y] | 2.7
FRCPTCRHEVIMDRHGVYGLQRNW [L24W] | 2.4
FRCPTCRHEVIMKRHGVYGLQRNL [D13K] | 1.76
FRCPTCRHEVIMMRHGVYGLQRNL [D13M] | 2.79
FRCPTCRHEVIMTRHGVYGLQRNL [D13T] | 1.9
FRCPTCRHEVIMNRHGVYGLQRNL [D13N] | 1.04
FRCPTCRHEVIMCRHGVYGLQRNL [D13C] | 2.18
FRCPTCRHEVIMFRHGVYGLQRNL [D13F] | 1.71
FRCPTCRHEVIMIRHGVYGLQRNL [D13I] | 2.07
FRCPTCRHEVIMQRHGVYGLQRNL [D13Q] | 3.89
FRCPTCRHEVIMVRHGVYGLQRNL [D13V] | 1.32
FRCPTCRHEDIMDRHGVYGLQRNL [V10D] | 2.9
FRCPTCRHEMIMDRHGVYGLQRNL [V10M] | 1.74
FRCPTCRHEAIMDRHGVYGLQRNL [V10A] | 2.65
FRCPTCRHEWIMDRHGVYGLQRNL [V10W] | 2.16

Variant | protein stability index
FECPTCRHEVIMDRHGVYGLQRNL [R2E] | 2.55
FNCPTCRHEVIMDRHGVYGLQRNL [R2N] | 1.44
FSCPTCRHEVIMDRHGVYGLQRNL [R2S] | 1.4
FFCPTCRHEVIMDRHGVYGLQRNL [R2F] | 3.38
FLCPTCRHEVIMDRHGVYGLQRNL [R2L] | 1.98
FKCPTCRHEVIMDRHGVYGLQRNL [R2K] | 1.77
FACPTCRHEVIMDRHGVYGLQRNL [R2A] | 2.96
FWCPTCRHEVIMDRHGVYGLQRNL [R2W] | 2.42
FPCPTCRHEVIMDRHGVYGLQRNL [R2P] | 1.56
FQCPTCRHEVIMDRHGVYGLQRNL [R2Q] | 1.84
FRCPTGRHEVIMDRHGVYGLQRNL [C6G] | 2.31
FRCPTRRHEVIMDRHGVYGLQRNL [C6R] | 2.27
FRCPTKRHEVIMDRHGVYGLQRNL [C6K] | 2.15
FRCPTERHEVIMDRHGVYGLQRNL [C6E] | 2.61
FRCPTMRHEVIMDRHGVYGLQRNL [C6M] | 2.06
FRCPTIRHEVIMDRHGVYGLQRNL [C6I] | 1.89
FRCPTNRHEVIMDRHGVYGLQRNL [C6N] | 2.38
FRCPTTRHEVIMDRHGVYGLQRNL [C6T] | 2.97
FRCPTCRHEVIMDRHGVYGLSRNL [Q21S] | 1.55
FRCPTCRHEVIMDRHGVYGLLRNL [Q21L] | 3.19
FRCPTCRHEVIMDRHGVYGLCRNL [Q21C] | 2.63
FRCPTCRHEVIMDRHGVYGLERNL [Q21E] | 2.73

Variant | protein stability index
FRCPTCRHEVIMDRHGVYGLNRNL [Q21N] | 2.87
FRCPTCRHEVIMDRHGVYGLWRNL [Q21W] | 2.31
FRCPTCRHEVIMDRHGVYGLRRNL [Q21R] | 1.98
FRCPTCRHEVIMDRHGVYGLPRNL [Q21P] | 1.96
FRCPTCRHEVIMDRHGVYGLGRNL [Q21G] | 2.42
FRCPTCRHEVIMDRHGVYGLARNL [Q21A] | 1.66
FRCPICRHEVIMDRHGVYGLQRNL [T5I] | 2.53
FRCPGCRHEVIMDRHGVYGLQRNL [T5G] | 1.33
FRCPQCRHEVIMDRHGVYGLQRNL [T5Q] | 1.64
FRCPKCRHEVIMDRHGVYGLQRNL [T5K] | 2.38
FRCPSCRHEVIMDRHGVYGLQRNL [T5S] | 1.82
FRCPTCRHEVIMDKHGVYGLQRNL [R14K] | 2.07
FRCPTCRHEVIMDVHGVYGLQRNL [R14V] | 1.54
FRCPTCRHEVIMDAHGVYGLQRNL [R14A] | 1.99
FRCPTCRHEVIMDFHGVYGLQRNL [R14F] | 1.7
FRCPTCRHEVIMDMHGVYGLQRNL [R14M] | 1.91
FRCPTCRHEVIMDEHGVYGLQRNL [R14E] | 3.1
FRCPTCRHEVIMDCHGVYGLQRNL [R14C] | 1.63
FRCPTCRHEVIMDQHGVYGLQRNL [R14Q] | 2.52
